Source: article PMC6137056

Assays:
[1] = tested on: UVI31+ (wild type) (Chlamydomonas reinhardtii), PDB:5ZB6_1; assay: ITC; settings: ITC: 10 mM Tris-HCl pH 7.5, 50 mM NaCl, 5% glycerol, 5 mM MgCl2, 0.1 mM EDTA, EMSA: 10 mM Na-phosphate pH 7.5, 10 mM NaCl, 1 mM MgCl2, 37 C, 5 min, 1 uM …; for Ka (M-1 (unit not given)): 5 mM MgCl2, 25 C
[2] = tested on: UVI31+ (wild type) (Chlamydomonas reinhardtii), PDB:5ZB6_1; assay: EMSA; settings: ITC: 10 mM Tris-HCl pH 7.5, 50 mM NaCl, 5% glycerol, 5 mM MgCl2, 0.1 mM EDTA, 25 C, EMSA: 10 mM Na-phosphate pH 7.5, 10 mM NaCl, 1 mM MgCl2, 37 C, 5 min, 1 uM …

CGCGAATTCGCG (double strand) [12-mer self-complementary ds-DNA]
Ka (M-1 (unit not given)) ([1]; K1, sequential binding model): 3.05e+06
Ka (M-1 (unit not given)) ([1]; K2, sequential binding model): 11400
Kd ([1]; apparent Kd, two sets of sites, 5 mM MgCl2, 50 mM NaCl, pH 7.5, 25 C): 5.36 µM

50-bp dsDNA (EMSA)
Kd [2]: 1.1 µM

ssDNA (EMSA, 50-mer)
Kd ([2]; 1 mM MgCl2, partial loss of ssDNA by cleavage): 1.4 µM
